Experimental data published in IntAct's records for PubMed 37595036.

B1: CDK5 regulatory subunit-associated protein 3 (Homo sapiens), Q96JB5 (parent)
chain: MEDHQHVPIDIQTSKLLDWLVDRRHCSLKWQSLVLTIREKINAAIQDMPESEEIAQLLSGSYIHYFHCLRILDLLKGTEASTKNIFGRYSSQRMKDWQEIIALYEKDNTYLVELSSLLVRNVNYEIPSLKKQIAKCQQLQQEYSRKEEECQAGAAEMREQFYHSCKQYGITGENVRGELLALVKDLPSQLAEIGAAAQQSLGEAIDVYQASVGFVCESPTEQVLPMLRFVQKRGNSTVYEWRTGTEPSVVERPHLEELPEQVAEDAIDWGDFGVEAVSEGTDSGISAEAAGIDWGIFPESDSKDPGGDGIDWGDDAVALQITVLEAGTQAPEGVARGPDALTLLEYTETRNQFLDELMELEIFLAQRAVELSEEADVLSVSQFQLAPAILQGQTKEKMVTMVSVLEDLIGKLTSLQLQHLFMILASPRYVDRVTEFLQQKLKQSQLLALKKELMVQKQQEALEEQAALEPKLDLLLEKTKELQKLIEADISKRYSGRPVNLMGTSL

Variants of: B1
Details: with ufc1_human UFC1, Q9Y3C8
Sequence of ufc1_human UFC1, Q9Y3C8 (Q9Y3C8 whole entry): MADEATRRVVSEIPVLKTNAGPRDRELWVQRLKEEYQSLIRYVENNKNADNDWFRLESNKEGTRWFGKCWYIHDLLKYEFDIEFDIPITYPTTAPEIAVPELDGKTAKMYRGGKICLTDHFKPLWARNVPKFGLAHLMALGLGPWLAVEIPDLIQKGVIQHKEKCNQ

Row | Variant | effect of a mutation on the interaction
1 | I267A;W269A | decreasing interaction strength
